Columns and labels:
[1] = target: recombinant truncated CrrB (135-353 amino acids) (Klebsiella pneumoniae); assay: not stated; purified recombinant His-tagged protein after Ni-NTA; how dimer and monomer were told apart is not stated in the text (Supplementary Figure S1)
[2] = target: recombinant truncated CrrB (135-353 amino acids) P151L mutant (Klebsiella pneumoniae); assay: as above

Substance | stoichiometry N [1] | stoichiometry N [2]
recombinant truncated CrrB (135-353 amino acids) (domain or fragment) | 2 | 
recombinant truncated CrrB (135-353 amino acids) P151L mutant (domain or fragment) |  | 2
